# Reference: doi:10.1101/2020.06.01.127704 (bioRxiv, 2020)
# B1: full-length human excitatory amino acid transporter 3 with two potential glycosylation sites mutated (N178T and N195T) (natural protein, UniProt P43005 1-524, looked up)
# chain: MGKPARKGCEWKRFLKNNWVLLSTVAAVVLGITTGVLVREHSNLSTLEKFYFAFPGEILMRMLKLIILPLIISSMITGVAALDSNVSGKIGLRAVVYYFCTTLIAVILGIVLVVSIKPGVTQKVGEIARTGSTPEVSTVDAMLDLIRNMFPENLVQACFQQYKTKREEVKPPSDPEMTMTEESFTAVMTTAISKTKTKEYKIVGMYSDGINVLGLIVFCLVFGLVIGKMGEKGQILVDFFNALSDATMKIVQIIMCYMPLGILFLIAGKIIEVEDWEIFRKLGLYMATVLTGLAIHSIVILPLIYFIVVRKNPFRFAMGMAQALLTALMISSSSATLPVTFRCAEENNQVDKRITRFVLPVGATINMDGTALYEAVAAVFIAQLNDLDLGIGQIITISITATSASIGAAGVPQAGLVTMVIVLSAVGLPAEDVTLIIAVDWLLDRFRTMVNVLGDAFGTGIVEKLSKKELEQMDVSSEVNIVNPFALESTILDNEDSDTKKSYVNGGFAVDKSDTISFTQTSQF
# Target: the molecule itself
# Experiment: cryo-EM structure
protein,measurement,value
B1,stoichiometry N,3
